Experimental data as given in US20110070185A1 (Janssen / Centocor, published 2011).

B1: P24 (peptide)
peptide: LKIHAREIFD
notes: synthetic peptide; also called peptide 24
B2: P4 (peptide)
peptide: RSLFLLYAL
notes: synthetic peptide; also called peptide 4; RSLFLLYAL
B3: P2 (peptide)
peptide: LLPGRTVLV
notes: synthetic peptide; also called peptide 2
B4: P19 (peptide)
peptide: NLKAALENLGAL
notes: synthetic peptide; also called peptide 19; NLKAALENLGAL
B5: P18 (peptide)
peptide: LKNKLKDLGH
notes: synthetic peptide; also called peptide 18
B6: P14-18 (peptide)
peptide: FMLQTYGQQL
notes: synthetic computer predicted peptide
B7: P14-17 (peptide)
peptide: DLPGITR
notes: synthetic truncated peptide; also called DLPGITR
B8: P14-11 (peptide)
peptide: TLIDLPGIT
notes: synthetic truncated peptide
B9: P14-6 (peptide)
peptide: TLIDLPGITR
notes: synthetic truncated peptide
B10: P3-1 (peptide)
peptide: LVLNLLEL
notes: synthetic truncated peptide
B11: P13-14 (peptide)
peptide: VDLPGMT
notes: synthetic truncated peptide; also called VDLPGMT
B12: P3-4 (peptide)
peptide: SLVLNLLE
notes: synthetic truncated peptide
B13: P13-2 (peptide)
peptide: VDLPGMTKV
notes: synthetic truncated peptide
B14: P13-12 (peptide)
peptide: VDLPGMTK
notes: synthetic truncated peptide
B15: P14-2 (peptide)
peptide: IDLPGITRV
notes: synthetic truncated peptide
B16: P14-5 (peptide)
peptide: PGITRV
notes: synthetic truncated peptide; also called PGITRV
B17: P13-11 (peptide)
peptide: LVDLPGMT
notes: synthetic truncated peptide
B18: P3-6 (peptide)
peptide: SLVLNL
notes: synthetic truncated peptide; also called SLVLNL
B19: P3-5 (peptide)
peptide: SLVLNLL
notes: synthetic truncated peptide; also called SLVLNLL
B20: P13-7 (peptide)
peptide: TLVDLPGMT
notes: synthetic truncated peptide
B21: P13-4 (peptide)
peptide: LPGMTKV
notes: synthetic truncated peptide; also called LPGMTKV
B22: P13-10 (peptide)
peptide: TLVDLP
notes: synthetic truncated peptide; also called TLVDLP
B23: P14-10 (peptide)
peptide: TLIDLP
notes: synthetic truncated peptide; also called TLIDLP
B24: P13-1 (peptide)
peptide: LVDLPGMTKV
notes: synthetic truncated peptide
B25: P3-3 (peptide)
peptide: LNLLEL
notes: synthetic truncated peptide; also called LNLLEL
B26: P3-8 (peptide)
peptide: LVLNLLE
notes: synthetic truncated peptide; also called LVLNLLE
B27: P14-7 (peptide)
peptide: TLIDLPGIT
notes: synthetic truncated peptide
B28: P14-1 (peptide)
peptide: LIDLPGITRV
notes: synthetic truncated peptide
B29: P13-5 (peptide)
peptide: PGMTKV
notes: synthetic truncated peptide; also called PGMTKV
B30: P3-7 (peptide)
peptide: SLVLNLL
notes: as for B19
B31: P13-8 (peptide)
peptide: TLVDLPGM
notes: synthetic truncated peptide
B32: P3-2 (peptide)
peptide: VLNLLEL
notes: synthetic truncated peptide; also called VLNLLEL
B33: P13-6 (peptide)
peptide: TLVDLPGMTK
notes: synthetic truncated peptide
B34: P14-13 (peptide)
peptide: LIDLPGIT
notes: synthetic truncated peptide
B35: P13-9 (peptide)
peptide: TLVDLPG
notes: synthetic truncated peptide; also called TLVDLPG
B36: P14-9 (peptide)
peptide: TLIDLPG
notes: synthetic truncated peptide; also called TLIDLPG
B37: P14-12 (peptide)
peptide: LIDLPGITR
notes: synthetic truncated peptide
B38: P14-4 (peptide)
peptide: LPGITRV
notes: synthetic truncated peptide; also called LPGITRV
B39: P14-8 (peptide)
peptide: TLIDLPGI
notes: synthetic truncated peptide
B40: P13-3 (peptide)
peptide: DLPGMTKV
notes: synthetic truncated peptide
B41: P14-3 (peptide)
peptide: DLPGITRV
notes: synthetic truncated peptide
B42: P13-15 (peptide)
peptide: DLPGMTK
notes: synthetic truncated peptide; also called DLPGMTK

molecular target: T1, HLA-A2 molecules in T2 cells (human); assay: HLA-A2 stabilization assay on T2 cells, flow cytometry with FITC anti-HLA-A2
T1 construct: whole, on cells; Target of the HLA-A2 Stabilization Assay; also called MHC class I, HLA-A2; MHC/HLA-A2

| Binder | binding result |
| --- | --- |
| B1 | no binding (tested: up to 200 uM) |
| B2 | no binding (tested: up to 200 uM) |
| B3 | no binding (tested: up to 200 uM) |
| B4 | no binding (tested: up to 200 uM) |
| B5 | no binding (tested: up to 200 uM) |

molecular target: T1, HLA-A2 molecules in T2 cells; assay: HLA-A2 stabilization assay on T2 cells

| Binder | binding result |
| --- | --- |
| B6 | no binding |

molecular target: T1, HLA-A2 molecules in T2 cells; assay: HLA-A2 stabilization assay on T2 cells; remark: another data set of the same source

| Binder | binding result |
| --- | --- |
| B7 | no binding |
| B8 | no binding |
| B9 | no binding |
| B10 | no binding |
| B11 | no binding |
| B12 | no binding |
| B13 | no binding |
| B14 | no binding |
| B15 | no binding |
| B16 | no binding |
| B17 | no binding |
| B18 | no binding |
| B19 | no binding |
| B20 | no binding |
| B21 | no binding |
| B22 | no binding |
| B23 | no binding |
| B24 | no binding |

| Binder | binding result |
| --- | --- |
| B25 | no binding |
| B26 | no binding |
| B27 | no binding |
| B28 | no binding |
| B29 | no binding |
| B30 | no binding |
| B31 | no binding |
| B32 | no binding |
| B33 | no binding |
| B34 | no binding |
| B35 | no binding |
| B36 | no binding |
| B37 | no binding |
| B38 | no binding |
| B39 | no binding |
| B40 | no binding |
| B41 | no binding |
| B42 | no binding |
